Reference: the domain aggregation screens of Martell et al. (2025)

Assay: soluble fraction after stress (log2 fold change); higher = more stays soluble; pooled small domains, quantitative proteomics
Conditions: stress: 75 degC
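Also: 20 min heating vs room temperature control held 20 min.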

Sequence: HMVDWTFPVLVKDVVMMGRYGHMGFLRIPGKKDFESVDNALAKVGMVEYAKQQIGELSGGQR
- soluble fraction (log2): -0.019

Sequence: HMRRGPLTPDDFVLDMRVVHPRYGVGRIVALSGSGESRKATVDFGGSIGRMKFVLSQSPLKP
- soluble fraction (log2): -1.34

Sequence: HMGSFGAMLKRNRKLAGLTQEQLAEKLDVSTVAVQNWESGKNQIRSEKLTKLSYLFNIPLETLIHEMLIS
- soluble fraction (log2): -1.12

Sequence: HMEKNKERIAFLKKRLEMYYEAEEKILQGQSYTIGSRTLTRTSLANVQSKIKELESEISALETRGN
- soluble fraction (log2): -1.5

Sequence: HMDVFPDESLKAWLIEMGFKLDQKKMNVFTVLRRMLLQTAPSVKEFRILEIVLQQSRRKLKELNDLKKS
- soluble fraction (log2): -0.00949

Sequence: HMTAEVIYVDVGGEVNQPSVVELTDGSRVTDAIAAAGGLTEKADLTDINRAAFVSDGEKIFIPSQEE
- soluble fraction (log2): 0.4

Sequence: HMGLRERLLNYIAYKGIDKATLERKSGLSNDAVNKMGDNTRVSTLDKISNAFPDINIAWLKTGVGEMILG
- soluble fraction (log2): -0.306

Sequence: HMEREQNILQGREVVERELRRLGLAEAYTVSDIAKALKFDDEEQFLAKVGFGDIQSRQISGAIALMEKN
- soluble fraction (log2): -0.0753

Sequence: HMEPSQEFSLADMVAYDLTGYPKSAALRAAVGASLGIGYGNAKQFVYRLNHYGISKDDFHRAAQEALDGL
- soluble fraction (log2): -1.1

Sequence: HMKVQLGMNTREVRGIMGKPFSEDTFVEGEKRVDVLHYKEAVRVKTQGFILTTSLRFENDSLTAI
- soluble fraction (log2): -1.62

Sequence: HMQQVDWGSVFGDFGTMFKDQLQPTIDRLRRMAQSDTFRQSSLEEQQILYSLIEKLERSGTA
- soluble fraction (log2): -1.89

Sequence: HMTTRQREALLDYLSRHPDQPLTVREIAAGVEPDGVSLSAVYRNLAELEAAGLIRRESRPGSREAVVQYV
- soluble fraction (log2): -0.0192

Sequence: HMRSNQKVSQIAISQVLPGMVTAKNVYSRNDQLILNRETTLDSTKIAKIMFYAIESIYVYEPE
- soluble fraction (log2): -2.21

Sequence: HMKNYYSILGVTPDSSEAEIKSAYRRLARKFHPDVNPDGASRFKDISEAYETLSDAKKRFQYDTINGF
- soluble fraction (log2): -0.0709

Sequence: HMELADNFAKLILTARESKGWTQAQLGQRMAETINVIKSAESGKPPADSVIRKFEMILGIELM
- soluble fraction (log2): -2.06

Sequence: HMQTRIDISDAVLQWVVRKTQFAALPPKAAAHLTKWVRGEKKPTFNQLEEVSKATGIPLGYFFLQQPPHE
- soluble fraction (log2): -2.19

Sequence: HMDDVIDVYATYDKSAEGVLSNIQLFSNQKKTTPITPESGKIYIDVEGNYQFRWTGTQYATV
- soluble fraction (log2): 0.15

Sequence: HMEDIVDLVVEPEAAGRRLDAWLASRIERLSRSRIKALIESGHVAIGGATIVEAKKPVNSGDVVQLSVPEG
- soluble fraction (log2): -0.263

Sequence: HMVSYTLPTLHTGKNWYVDFTAYDPAEQKMKRKKYMLDGISKITERRKRAVDIIATVTARLRSGWNPWA
- soluble fraction (log2): -2.76

Sequence: HMTGLSFEEKDLLGNALKLLDETERRIVILHATSGLKHREIAKQLDIPLPTVLSKYTRAIKKLKKHME
- soluble fraction (log2): -1.14

Sequence: HMREGNELLGKEGVTVSELRPAGIALIDGRRTDVVTDGEFVAVDQAVEVVEVSGNRVVVRRS
- soluble fraction (log2): 0.305

Sequence: HMSYKYYSTERPLMPGSFPKPQGNTVLNIENFNDRSYVGKIGREAWGFIEYEKPISPVLLDDYELVAA
- soluble fraction (log2): -0.235

Sequence: HMPRDYYAVLEVSVSSTPVQIRQAYQRLARRYSPDVNFLDRDTEALFEEIVEAYRVLSNPTARTLYDRG
- soluble fraction (log2): -4.52

Sequence: HMGMSENIDKVAGGIPYKVEGNKAIINEPLDDATKERLMGKAKEHGYHAAPNQAGGITITLK
- soluble fraction (log2): -0.0517

Sequence: HMETVPMIDLRGMTQEQAEKAIVGLGLTVGTVDHSSSDMPAGQVWFQSVEPKDEVAPGTKVNIIISTGS
- soluble fraction (log2): 0.0577

Sequence: HMGGSDIYLGAFNIPQGSVRVTSGGQALTEGKDFTIDYNLGSVKIINQAILNSGIPVSVSYENNAG
- soluble fraction (log2): 0.0185

Sequence: HMGTKVGAPLPGTITEVKVKVGDTVKAGDAVIILEAMKMQNNIEAEVSGTVSSVLVKEGDTVMEGDALITI
- soluble fraction (log2): -0.0573

Sequence: HMPTANFPAMAEALKKQYGPPTGEEETSWTHRLGGVFDIKIQSWNTPQGEMVLRSRGAAMDAGML
- soluble fraction (log2): 0.385

Sequence: HMNDREAAYEDLPDELVRVGQKVFIKSLETEGVIVQPPNKKGEVRVRSGNISTNVKRSDLGLPIEKP
- soluble fraction (log2): 0.0745

Sequence: HMAFKEQLKAARLAKGYTQEQLATAIGVAKSTFTGYEKGNSEPNMLTIKKLMEILEVDANYLWY
- soluble fraction (log2): -2.91

Sequence: HMSTVELPVQINGKVRGRITVPANAGQEDVKQAALADSKVQRYIEGASIRKVIVVPRKLVNIVV
- soluble fraction (log2): -0.215

Sequence: HMFRDFSETLLRKLQAAGGFLPFTDKTDAEAIAEHFQVSKKTFKRAVGTLYKQRRILIDDEGITLIG
- soluble fraction (log2): -1.59

Sequence: HMGRRDLSWQPAAGGVSIDGLKAGEAWTLFGLNGRILKQGYAPEGQMSLAVNAGLFVLRGAESGVIRIAVA
- soluble fraction (log2): -1.38

Sequence: HMGEVVRAPMPGNVLKMEVAQGQEVEEGDLLLVLEAMKMENDIVAPKGGIVIQLVVDKGMVVETDDPLVVI
- soluble fraction (log2): -0.339

Sequence: HMNLLDYTTLYVTSDGKSVSFGIAGKEIPVSYIAQEAPGTVVIDDTIRIPRKYDMEYILKRFNES
- soluble fraction (log2): -1.2

Sequence: HMFAATGTVNTEGSSLRLRAEASTSSSVLKQLSHGTQVDVLSGLVDGWYQVSYKGTTGYVSGEYLTVTE
- soluble fraction (log2): -0.704

Sequence: HMSKPTLTDELLTLDLFEEIIKAKENAKGANKRFSLVGFLESKYIVDQEMLPKVNVKVTEYYNLTREN
- soluble fraction (log2): -1.8

Sequence: HMGDFNYVMPDFRGLEAHDVSSFLNRNGFLLRPTEHEVSFTQRPGLILMHYPEPGYPFSRSSPITLVVS
- soluble fraction (log2): -0.947

Sequence: HMTRYEQLAAQIRQQIEDNIWQSGDRLPSLRDTVKQSGLSLMTVLQSYQLLESQGWITARPQSGYYVAHR
- soluble fraction (log2): 0.284

Sequence: HMQTPPGRYRHYKGGLYEVIATARHSETLEPMTVYRALYGEQGLWVRPAAMFAEDITLEGVRQPRFARI
- soluble fraction (log2): -2.39

Sequence: HMKKALTAEQEARVRELYFRGINYYSANRYQDAIAEWRKVLAIDPNHEKAKNNIRQTLILLK
- soluble fraction (log2): -1.26

Sequence: HMTGETWAERSRALAAAGLIVMGQEAKNKIEDLPSLSPLIEAAAASETRLLTGQIIDELLAFV
- soluble fraction (log2): -0.589

Sequence: HMNKTLTEQIYDELKSAIIELELKPGEFVTEEYLAEQLGVSRTPLKSAISKLIFEGLMAYEVGKGTYIS
- soluble fraction (log2): -1.11

Sequence: HMTLTIEDQLRRLRARLGRGRAFLFSDVLVNPHDRTEIAVTLLALLELIKRREAQASQSYLFGPIEVAAA
- soluble fraction (log2): -2.01

Sequence: HMTEGDRLARRILRLVRNKPNGYPEVELMKATVLDWNHFQRSISSLEMAGILERRDPGDGTPPVWVEKR
- soluble fraction (log2): -1.53

Sequence: HMNNQKATAVKVASGIVNLRSGPATSYETLDTVATGETLSVLAEKDGWFQVSRAGRTGWVAGWVVDVIRE
- soluble fraction (log2): -0.499

Sequence: HMGEDLTIDQLAAEVDMTVRNIRAHQARGLLPPPTIKGRIGYYGPLHRRRLQQIRAMQEEGLNLAAIAKVV
- soluble fraction (log2): -0.889

Sequence: HMEKTTTLFDETTNPGIIYIGKAMPTGSAISEAAAVWAIKTIDTTTDTEIKWADGVTTYTKVWNNRASYSY
- soluble fraction (log2): -0.872

Sequence: HMPASGISSEIIYDGILIEENLRQLKKDKAWLMDQLKKKGISSVSEVFLATLNKGGSLYIDKY
- soluble fraction (log2): -0.451

Sequence: HMGNFGDLLKILLDEKELSMGELSKKSGIDKSTISRIANNKQKPNINHLEKMAIHLNINLEELLKASGYEF
- soluble fraction (log2): -0.666

Sequence: HMTGSLLVEVQGRPDADRLLGQALVDAGLTARPAGGALIEVEVRDETTPDVVRDLTVDLGLGLVRMQERH
- soluble fraction (log2): -0.548

Sequence: HMPAPMISIQLNGEPRNVQPGISIAALVREIGLEPAKVAVERNREIVPRSTLGDVLIEAGDQLEIVHFVG
- soluble fraction (log2): -0.45

Sequence: HMILNPADEEKMNLINFELQQRGLEINDKEMQYIFTHHSRDLNSLLNLAEKLDEISHQEKKSISINLIKKI
- soluble fraction (log2): -0.0616

Sequence: HMTNNFIVTWRNYNEEVLEIDVNVKKGSMPKYNGKTPEREGYQFVGWDPEITEVTKDITYVAQFM
- soluble fraction (log2): -1.92

Sequence: HMVNPIDFYLLFRTELQRLAEHPITVDRLTEVTGLNKLQVLDWLKRAEQDGLVKKLNRPTRYQLN
- soluble fraction (log2): 0.233

Sequence: HMNQNIYVPKLEGLQIEEASSILKSKGLNIEITDSIFRKDAVPGAIIEQTPKPNSRVKTGRNIYVSIYSK
- soluble fraction (log2): 0.385

Sequence: HMITGREMDVLEALWSSEKPLVASDIPKMKPSLSISSVQLALRNLVKKKLVEVADIVYSGTVLSRSYRP
- soluble fraction (log2): 0.0724

Sequence: HMQNEVMPYSTFLSEVNSGNVTKVKIDHEQLTGTLKSGKQFTTYILDAATLPSIVAEKGVEVEVVPP
- soluble fraction (log2): 0.506

Sequence: HMREIDIWVAEDADSQRIDKYLSMVVEDLSRSRIASLIEGGSILVNGEVIRAKYKVKPADHITAAFEDEM
- soluble fraction (log2): -1.27

Sequence: HMTPKVDLTVAEDGSASAVIAGLRVEIDAAGKVTAVAPADGTTDLSSVAPEAVKEAMDNALAAYTASKG
- soluble fraction (log2): 0.12

Sequence: HMSRLGINTTIEDIKMVGKIIMPLLKQGQSVYQILASHPEIPYSEKTLYSYIEDNIFKDAGIDISVFDL
- soluble fraction (log2): -1.32

Sequence: HMGYSSKISELLTKYNMNASELAQKVGVPPTTIYSIIKRDSKKADIEVLIKIAKLFNVPVEYF
- soluble fraction (log2): -2.38

Sequence: HMQITQSSEPIDVSALRLGMFIHLEGGWLSHPFPRSSFKITSEDQLVTLRSLGISVLRWSPELSDPE
- soluble fraction (log2): -3.52

Sequence: HMFNDPTMEDALVNLKGITNEVLSYLSSSKIKKLEELAEMSVPELKDIVENISDDEASALIMEARKPWF
- soluble fraction (log2): -0.373

Sequence: HMEFDVELTSFEEAKKLKVIKEVKDVTGLSLGEAKDLVMGAPKAIKTGVSKEEAEAIKTQIEAAGAVVTI
- soluble fraction (log2): 0.101

Sequence: HMDHVEDRMVLEVVLKKLTEEERRIVMLHAVSGLKHREIAKALDIPLSTVLSKYKRTLKKLEAYLMEME
- soluble fraction (log2): -1.72

Sequence: HMAYQQITIKANVVNVRQGPGLSYDVMSQANKGETMNVISQKNNWYQVRLSGDKIGWVASWLVDNT
- soluble fraction (log2): -3.08

Sequence: HMIMTGSIQEKNGKYYTVLNIKDKNGKYKKKWQTTGLPVKGNKRKAEQILRRRIAEYEANQL
- soluble fraction (log2): -0.861

Sequence: HMTIGPALAIGGNKVEMTQQGKIQVTNPQGKIKTLSQDEFKKQLVKNADKIEAGQDFEFKKD
- soluble fraction (log2): 0.275

Sequence: HMSSPPNPQLAKRYISYSVDDIARLFGIHRHTVREWIKRGLPVIDQQRPLLVQGADLAEFLRKRRA
- soluble fraction (log2): -0.948

Sequence: HMDIVKVYTTARAGETLASVAKRTGVDVARLAQWNDIPLKRAKQKLKTGKALALWVQREHASAYSNAPP
- soluble fraction (log2): -1.78

Sequence: HMVERRVRFTVAPGNAGLRLDLFLTAREIGLSRTQVGRAVDEGQIQVNGRPGRAGRKLKTGDVVAIVLPA
- soluble fraction (log2): -1.13

Sequence: HMSIVVPDLRGKTLEEARAILKEADLDFEINDSTFSKTARPGTIRDVVPSPGSRVKAGRILFISINGF
- soluble fraction (log2): -0.781

Sequence: HMATGGKIYIGMNDNGKVVGVSDADKLLEDIPNKVRDVLGIIVDVNLLEENGLKYIEIDVPPYSN
- soluble fraction (log2): -0.698

Sequence: HMIMTHSALLEKDGFDIVKVHFERPNDDGFDFLDMTLPGEIVYKSFGFSEDEILKLKRYAKNNSSLIWDF
- soluble fraction (log2): -2.5

Sequence: HMFDLENIRLTLARRLNVAAHLRPKYVAGFTLLLKQNFPEQNAEDLLNRLEHNQWLKVNQREIEYSPRLLM
- soluble fraction (log2): -1.63

Sequence: HMATEVEVPDVVGRQMALATQLLEARKLRVNVAEIYDEKTPPGQVVSQSPEAGSSVKEERVVTIYVSR
- soluble fraction (log2): -0.154
